From publication PMC6471365 (Pathogens, 2019)

Key:
[1] = biological target: Recombinant SSL1 of S. aureus ocular isolate 295.236 (allele type 2) (Staphylococcus aureus isolate 295.236)
[2] = biological target: Recombinant SSL1 of S. aureus strain MW2 (allele type 1) (Staphylococcus aureus strain MW2)
[3] = biological target: Recombinant SSL1 of S. aureus strain Newman (allele type 3) with a C-terminal 6-His tag (Staphylococcus aureus strain Newman)
[4] = biological target: the molecule itself; test: gelatin zymography with SDS compared with reduced, denaturing SDS-PAGE

In the case of “Recombinant SSL1 of S. aureus ocular isolate 295.236 (allele type 2) (from UniProt A0A0H3KAV3 31-226) (natural protein)”, the stoichiometry N [1] is reported as 2.

Molecule “Recombinant SSL1 of S. aureus strain MW2 (allele type 1) (from UniProt A0A0H3KAV3 31-226) (natural protein)” has a stoichiometry N [2] of 2.

Work on “Recombinant SSL1 of S. aureus strain Newman (allele type 3) with a C-terminal 6-His tag (from UniProt A0A0H3KAV3 31-226) (natural protein)” yielded a stoichiometry N [3] of 2.

B1: Staphylococcus aureus superantigen-like protein SSL1 of strain Newman, native secreted protein (natural protein)
chain: KAEVKQQSESELKHYYNKPILERKNVTGFKYTDEGKHYLEVTVGQQHSRITLLGSDKDKFKDGENSNIDVFILREGDSRQATNYSIGGVTKSNSVQYIDYINTPILEIKKDNEDVLKDFYYISKEDISLKELDYRLRERAIKQHGLYSNGLKQGQITITMNDGTTHTIDLSQKLEKERMGESIDGTKINKILVEMK
notes: also called the toxin; the protease
B1 was tested, and the “stoichiometry N” value [4] was 2.
